Here are results for 19 sequences from a protein production outcome set (Wang et al. 2014).
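Note: failed if final PepcDB status was selected cloned or expressed and not failed if soluble or beyond.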

This series in a line: label from the status in PepcDB records.
For the sequence “MAPLNYKTITSRSILSKVLVRATQQWPTDKTLNKQLSELYGAYVNSFVSKFKDKHVITISLEVVNEKFLKDKTPLFEKGLDTLKEIIWNPLIKDRCFDHTYVAQEKSLLSKKLEAMEDNKAQYSFLQLMNYMFKQEPYRYIATGQLEQIPQVTSESLYDTYLSMVQNDDCAIYVVGNINKEEVTQLILDKFAIKPFYLENKESTEITPSFDQPQYIIEKDDVDQAKLNLGYRFPSYYGKSNYYAFIVLNMMFGGDPSSVLFNEVREKQSLAYSIHSQIDGKNGFLFVLSGVSAEKYEQAKDTVIKEFDKIKNGDFDSNKIELAKKIIISHRHEASDRPKSIIEILHNQLLLNRQQTDQDFINAVNQVTKKDVIKLANEAVLDTIYVLTKGDQH”, the protein production result is on record as “failed”.

“MAPLPLAVIVYEPGDVLEEILAAARDRLVGLPDVRIAGLVPRLGPRHSNGRASFWLDDIVRGDSIALSQDLGPGSTSCILNADGLATARMRLAEAIAVRPDLVLFGRFAKEEIAGRGIREEIGLALAQDVPALVAVERAMLPGWIAFAAEGWTMLPADADAVVAWFVALAAERQSADTLEHHHHHH”: the protein production entry was “failed”.

On to “MAPPSDSDPREPSPPLFQGRGLTKRFGSFVANQAIDLDIAGGEVHALLGENGAGKSTLVKLITGLLQPDDGRMIWRGTPISFAGPAEARACGIAAVSQHFALFDNLTVVENVALGLDRRISVGRLATELEQISQRYGLPLDPKREVWRLSVGERQRIEIVRALLQNPQLLILDEPTAVLTPAEADRLFDVLQRLRADGRALLYISHKLDEVKRLASVATILRAGRVVGSCDPRQESAASMARMMVGSDVTAPKQSSHSIGGPLLSVSGLTQRPDDPHGVTLRDIALEVRSGEIVGIAGVAGNGQDELFAALSGETPIAQSDVIHIAGEAAGSLSINQRRRLGAAFVPEQRLGHATVPTMSLSDNALLTGHATGALVKFGLVNRGAALALVDRVSEAFDVRKASRDPEAARLSGGNLQKFIVGREILRQPRLLIVDQPSWGLDAGAASAIRQALLDLAASGAAVLVISQDLDELIEIADRIAVMFHGRLSPPRPVSEIGRDQLGLLMGGSGWPAEVRDVAGALEHHHHHH”, for which the protein production result is given as “failed”.

For “MAPQPFDIDTPSLRVFLPAPELATGRAIVACPGGGYGGLAVNHEGYDWAPYFNKQGIALIVLKYRMPHGDRTLPISDAEAAMKMARDSADVWNLNPYDIGIMGSSAGGHLASTIATHTRPELRPNFQILFYPVITMDKSYTHIGSHDNLLGKDAFAELETEFSNEKQVTKETPRAFIAYSDDDKTVPPANGVNYYLGLHKNHVPAVLHIYASGGHGWGIRENFIYLEHHHHHH”, the protein production result was “failed”.

For “MAQENPLWMRHCAISPDGTTIAFTYKGDIFTVPVSGGKATQITTNPAFDTTPIWSPDSKQIAFASDRMGSMDVFIVSKDGGEPRRLTTFSGGETPVAFTDAGHILFTADIMPSTEDAGFPSNGQFQQIYQIPVSGGRPVMFSSMPMECISINKEGTILYQDKKGYEDYWRKHQKSPIARDIWMLRPGQTPRYEKQTTFIGEDREPVWAPDGKSFYYLSEENGTFNVYQRTPGSDTSKQVTHHKQHPVRFLEHHHHHH”, the protein production result is reported as “failed”.

For “MAQKENSYPWPYGRQTAPSGLSTLPQRVLRKEPVTPSALVLMSRSNVQPTAAPGQKVMENSSGTPDILTRHFTIDDFEIGRPLGKGKFGNVYLAREKKSHFIVALKVLFKSQIEKEGVEHQLRREIEIQAHLHHPNILRLYNYFYDRRRIYLILEYAPRGELYKELQKSCTFDEQRTATIMEELADALMYCHGKKVIHRDIKPENLLLGLKGELKIADFGWSVHAPSLRRKTMCGTLDYLPPEMIEGRMHNEKVDLWCIGVLCYELLVGNPPFESASHNETYRRIVKVDLKFPASVPTGAQDLISKLLRHNPSERLPLAQVSAHPWVRANSRRVLPPSALQSVA”, the protein production entry is recorded as “failed”.

As to “MAQLPASMRRKRAAITSIHEKPPSRKQKLVNAGGWILLCIAFVVLAAGVYGLYKVITDAKIADLSIVGTRSVVEQNQLQQHIQPIIKDNYFTSDLEQIRDKALEISWVDRVVVSRAWPNSIRVRIMPRHAIARWGTGRLLSDSGDVYAEAELKNHPNLPMLHGPITQSKAMMRRYNEINQLFQPVNLRLTELYLTERMTWFMQFDSGLRVIVDQDQTMSKLQRLSHLAQTDLKPVWSKISAIDLRYRNGLSLQWKTGVPPKILNGQFVVTSDDTNVASGMTAKP”, the protein production entry is on record as “failed”.

In the case of “MAQLSARAREDPAAVVDCLPELRQELATLDPRPREHAAEVVATIAHHYPEAARTAVDDIRPLLSDANPGVRAEAARALAEVATTFPDAVYPSVCDLLDRLTDDHYESRVNAAWALAELATEQPAGLRPAVEALCGVLTDDVAAVRAGGVWALAELAEEYPEPVRNAVPALRRLLDDDATLVRVHAARALAVLAETHPDAVEPARVDLEAFGNGEPEDLRKAVTFALAQLDEQTTEAKATSTAGATIDDPLPEEEWIFGGSDTETTATSSGLSAGGIPETVPDVPTPDLSYDDLKKQTTVENGDLSAVYRAAASTENGTVPVALKELRPSDGATLDSDLAHEAYTEARRWEGLDDHDHIVTLVDYGREPTVWFAMEYMDAGHLAEVADSLAFEHRLWSALVLTRAIRRAHRAGILHLNLKPENVLFRTVDDGWAVPKISDWGMEIQPHQDDHDVVPRYAAPEQLADDGRTDGVTDVYQLGRAFYQLFTGRPAFETTPECPADIVEAEPPAPSDIASVPAAVGDIIRTAMAPSQPDRYGAVVYLQEELETICADHGVPTT”, the protein production result is “failed”.

Turning to “MAQPSTTYKFELNLTDLDRGVYESVKQTIARHPSETEERMTVRLLAYAFWYNEQLAFGRGLSDVDEPALWEKSLDDRVLHWIEVGQPDADRLTWCSRRTERTSLLAYGSLRVWEGKVIPAIKNLKNVNIAAVPQDVLEVLAKDMPRVIKWDVMISEGTVFVTDDRGQHEVQLQWLTGERG”, the protein production result is on record as “not failed”.

In the case of “MAQRGDPPPLRQYVAVRARLVGSGLVVGLLLGGLGMAGWTLYTGDARSSEATVFALGAMVFGFGLLGWSGSILAGRGIEAMQEHMDTRSNWTERDSRRAMARLCGGGGGIMVGTSVVAALL”, the protein production entry is “failed”.

In the case of “MAQRIFTLILLLCSTSVFAGLFDAPGRSQFVPADQAFAFDFQQNQHDLNLTWQIKDGYYLYRKQIRITPEHAKIADVQLPQGVWHEDEFYGKSEIYRDRLTLPVTINQASAGATLTVTYQGCADAGFCYPPETKTVPLSEVVANNAAPQPVSVPQQEQPTAQLPFSALWALLIGIGIAFTPCVLPMYPLISGIVLGGKQRLSTARALLLTFIYVQGMALTYTALGLVVAAAGLQFQAALQHPYVLIGLAIVFTLLAMSMFGLFTLQLPSSLQTRLTLMSNRQQGGSPGGVFVMGAIAGLICSPCTTAPLSAILLYIAQSGNMWLGGGTLYLYALGMGLPLMLITVFGNRLLPKSGPWMEQVKTAFGFVILALPVFLLERVIGDVWGLRLWSALGVAFFGWAFITSLQAKRGWMRIVQIILLAAALVSVRPLQDWAFGATHTAQTQTHLNFTQIKTVDELNQALVEAKGKPVMLDLYADWCVACKEFEKYTFSDPQVQKALADTVLLQANVTANDAQDVALLKHLNVLGLPTILFFDGQGQEHPQARVTGFMDAETFSAHLRDRQP”, the protein production entry is reported as “failed”.

Regarding “MAQRQPHSPNQTLISITNDTESSSSVVSNDNTNKGWSGDNSPGIEALCAIYITYAVIISVGILGNAILIKVFFKTKSMQTVPNIFITSLAFGDLLLLLTCVPVDATHYLAEGWLFGRIGCKVLSFIRLTSVGVSVFTLTILSADRYKAVVKPLERQPSNAILKTCVKAGCVWIVSMIFALPEAIFSNVYTFRDPNKNMTFESCTSYPVSKKLLQEIHSLLCFLVFYIIPLSIISVYYSLIARTLYKSTLNIPTEEQSHARKQIESRKRIARTVLVLVALFALCWLPNHLLYLYHSFTSQTYVDPSAMHFIFTIFSRVLAFSNSCVNPFALYWLSKSFQKHFKAQLFCCKAERPEPPVADTSLTTLAVMGTVPGTGSIQMSEISVTSFTGCSVKQAEDRF”, the protein production entry is “failed”.

Regarding “MAQRVQLTATVSENQLGQRLDQALAEMFPDYSRSRIKEWILDQRVLVNGKVCDKPKEKVLGGEQVAINAEIEEEARFEPQDIPLDIVYEDEDIIIINKPRDLVVHPGAGNPDGTVLNALLHYYPPIADVPRAGIVHRLDKDTTGLMVVAKTVPAQTRLVESLQRREITREYEAVAIGHMTAGGTVDEPISRHPTKRTHMAVHPMGKPAVTHYRIMEHFRVHTRLRLRLETGRTHQIRVHMAHITHPLVGDPVYGGRPRPPKGASEAFISTLRKFDRQALHATMLRLYHPISGIEMEWHAPIPQDMVELIEVMRADFEEHKDEVDWL”, the protein production entry is on record as “not failed”.

As to “MAQTCSILYIPYMLLLSSLFAAGIATITEGELLSSMIGVQGLIYCKRGSKLTPIQGAVARVTCERTDEYGYEAEDVTVLSQATDAKGYFLATLSSSEVKDYKKVIKIKECRAFLELSPSDTCSFPTEINRGISGAILQNYRLLENKLKMKLFTVGPFVFSSEETQDKSIPNGY”, the protein production entry was “failed”.

For “MARDNENILEEWCLIESNPCIFYDMLKRMGATEISVEDVYSLSYFDDYINNKEIINMNHILGVDTYLGENNKTLDKENNVVDVIELYKNNICMEDKYNKLLKHHSYIYGIIFLFNIGKHYKNNKYIEHNVPDNLFFAKQVIPNACATQAILSIVLNKDIELNDEIKNIKTFSLNFDSSMKGLTLSNCTFLRNIHNSYKPPIYLDKEDVHHDKKKSEDSFHFVSYISFQDKVYLLDGLQSGPVLINADEQNKPNPNNNNNNKDNDNDNNNNNNNNNNNNNNNNNNNNNNNNNNIGMNGKDWIEISREHIKKEIDEICNSQTNNDVRFNIIAVMKDKEYIIQEYINIHRIVKQRVNIKLINLGENIELSDEINEDEFPLLNDIPSIENLPNNVDTLYNIVNKSTLEINYLQSLLHEQKEIKKLWNIELTFKFFNFYPFIMSSLNLMAKHKLLKDAYQKEKLKNATKS”, the protein production entry was “failed”.

Regarding “MARIDHVGLMVKDIDASIAFYQNVIGMTLKGRMTHTNGVMKLAFLGFENRDETELELIEGYNDNLPQEGKVHHFAVSTDDIEAEFDRVKGAGIKLMEDEITVLPNGFRYFFLFGPEGEMVEFFQRT”, the protein production entry is recorded as “failed”.

Take “MARILKKNKNELLDILEDYMTDCKYRDLRRTTIRAYEQSLRLLFKFLEDDYKVIYVEDVKEEHIRNYIDFTKERGKYSYVANENNINSNVPQNRGDFGKKVSLCTLDNYLGNIKMFFTWCKDNKLISKDPSFKIKRIKYSRKAKAEITIDEFNKLLKSLDLTLFSEYRDYIVIQLLMDTGMRVGECLELREEDIDIRNKTIFISGEIAKGRRDRYVFFSNTMQRMLQKWLNYKDRYVESNYIFVTNRGGKYQVHSFEKHMRNYLKKAKIDKQITPHTLRNNFAKRFLMSGGDIYTLSRLLGHSDIRTTQSAYLDLTTSDIRKNYLKFSPLENMKKKNW”: the protein production result is “failed”.

On to “MARKIGSRYTAHQILGRGSAGTVWLGEGPDGPVAIKLLREDLASDQELVSRFVQERTALLGLDHPHVVSVRDLVVDGNDLALVMDLVRGTDLRTRLDRERRLAPEAAVAVVADVADGLAAAHAAGVVHRDVKPENVLLDMQGPLGPGGSHPALLTDFGVAKLIDTPRRTRATKIIGTPDYLAPEIVEGLPPRAAVDIYALATVLYELLAGFTPFGGGHPGAVLRRHVTETVVPLPGIPDELWQLLVQCLAKAPASRLRASELSARLRELLPMLAGMAPLDVDEPDAEQPEDAPDASAASPAAPVSTAEPVRRRGAVPLVPGAKPADSNRDTHTSMRVPAPDELAGGARGTARAPRASGAPRPGSARNRAATRRRRIAVGAGAVALVAAIGVGTWLATGGDEDGGGPQDTRNSAPAAP”, for which the protein production result is recorded as “failed”.

Take “MARKRLIIEMGMGIDQHGQEPTIAASRAVRNAIAHNALPGVWEVAGLSHPNEMIIEVQVAVPYPEQVREEEVLAVLPFGRKTLTVESGGMIVQGRAIPELNDKNDEMLIAIAAVTVLIENE”: the protein production entry was “not failed”.
